According to patent US20250340597A1:

Biological target: CH848.d0949.10.17 DT (HIV-1)
Assay: not stated (FIG. 4)

With DH270 UCA Fab the Kd was 60 nM.
